Experimental data as given in patent US20250009854A1 (MACFARLANE BURNET INSTITUTE FOR MEDICAL RESEARCH AND PUBLIC …, published 2025).
Numbering of substitutions follows the chain as printed.

Tests used:
[1] = biological target: T1, dimeric rsFcγRIIa (H131 allelic form) (UniProt P12318 34-217); assay: flow cytometry, biotinylated dimeric rsFcγRIIa + streptavidin-APC on Ramos-S cells opsonised with 5 µg/ml ACE2-Fc
T1 construct: also called dimeric recombinant soluble FcγRIIa
T1 sequence: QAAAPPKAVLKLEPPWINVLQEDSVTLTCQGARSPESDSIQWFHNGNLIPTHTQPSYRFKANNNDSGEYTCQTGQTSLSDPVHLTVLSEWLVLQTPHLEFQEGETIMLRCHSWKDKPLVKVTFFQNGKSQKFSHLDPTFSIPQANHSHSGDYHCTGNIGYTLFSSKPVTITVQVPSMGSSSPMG

[2] = biological target: T2, dimeric rsFcγRIIIa (V158 form) (UniProt P08637 17-208); assay: flow cytometry, biotinylated dimeric rsFcγRIIIa + streptavidin-APC on Ramos-S cells opsonised with 5 µg/ml ACE2-Fc
T2 construct: also called dimeric recombinant soluble FcγRIIIa
T2 sequence (P08637 17-208 F176V limits assumed): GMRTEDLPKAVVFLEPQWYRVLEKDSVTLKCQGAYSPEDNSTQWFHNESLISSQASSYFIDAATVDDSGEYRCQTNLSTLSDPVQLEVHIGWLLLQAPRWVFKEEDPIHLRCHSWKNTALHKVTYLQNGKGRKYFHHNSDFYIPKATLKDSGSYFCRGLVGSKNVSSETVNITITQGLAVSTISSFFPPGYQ

[3] = biological target: T1, dimeric rsFcγRIIa (H131 allelic form); assay: flow cytometry, biotinylated dimeric rsFcγRIIa + streptavidin-APC on Ramos-S cells opsonised with ACE2-Fc
[4] = biological target: T3, SARS-CoV-2 spike protein on Ramos-S cells (SARS-CoV-2, UniProt P0DTC2 14-1273); assay: flow cytometry on Ramos-S cells, FITC anti-hIgG-Fc
T3 construct: whole, on cells

B1: EflACE2-Fc-[change] (Fc fusion)
chain: ETGSTIEEQAKYFLDKFNHEAEDLFYQSSLASWNYNTNITEENVQNMNNAGDKWSAFLKEQSTTAQMYPLQEIQNLTVKLQLQALQQNGSSVLSEDKSKRLNTILNTMSTIYSTGKVCNPDNPQECLLLEPGLNEIMANSLDYNERLWAWESWRSEVGKQLRPLYEEYVVLKNEMARANHYEDYGDYWRGDYEVNGVDGYDYSRGQLIEDVEHTFEEIKPLYEHLHAYVRAKLMNAYPSYISPIGCLPAHLLGDMWGRFWTNLYSLTVPFGQKPNIDVTDAMVDQAWDAQRIFKEAEKFFVSVGLPNMTQGFWEYSMLTDPGNVQKAVCHPTAWDLGKGDFRILMCTKVTMDDFLTAHHEMGHIQYDMAYAAQPFLLRNGANEGFHEAVGEIMSLSAATPKHLKSIGLLSPDFQEDNETEINFLLKQALTIVGTLPFTYMLEKWRWMVFKGEIPKDQWMKKWWEMKREIVGVVEPVPHDETYCDPASLFHVSNDYSFIRYYTRTLYQFQFQEALCQAAKHEGPLHKCDISNSTEAGQKLFNMLRLGKSEPWTLALENVVGAKNMNVRPLLNYFEPLFTWLKDQNKNSFVGWSTDWSPYADQSIKVRISLKSALGDRAYEWNDNEMYLFRSSVAYAMRQYFLKVKNQMILFGEEDVRVANLKPRISFNFFVTAPKNVSDIIPRTEVEKAIRMSRSRINDAFRLNDNSLEFLGIQPTLGPPNQPPVSGGGGSTHTCPPCPAPELLGGPSVFLFPPKPKDTLMISRTPEVTCVVVDVSHEDPEVKFNWYVDGVEVHNAKTKPREEQYNSTYRVVSVLTVLHQDWLNGKEYKCKVSNKALPAPIEKTISKAKGQPREPQVYTLPPSREEMTKNQVSLTCLVKGFYPSDIAVEWESNGQPENNYKTTPPVLDSDGSFFLYSKLTVDKSRWQQGNVFSCSVMFEALHNHYTQKSLSLSPGK
[1]
  binding result: binds
[2]
  binding result: binds

B2: EflACE2-Fc-[change] (Fc fusion)
chain: B1 chain with F937Y
[3]
  binding result: no binding (tested: 5 µg/ml ACE2-Fc for opsonisation)

B3: S2P6-WT mAb (antibody, V domains shown)
VH: EVQLVQSGAEVKKPGASVKVSCKASGYTFTSQYMHWVRQAPGQGLEWIGIINPSGVHTSYAQKFQGRVTLTRDTSTSTLYMELSSLRSEDTAVYYCARGSPKGAFDYWGQGTLVTVSS
VL: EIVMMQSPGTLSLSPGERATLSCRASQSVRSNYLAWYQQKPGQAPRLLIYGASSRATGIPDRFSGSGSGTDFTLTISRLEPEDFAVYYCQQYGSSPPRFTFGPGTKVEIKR
[4]
  binding result: binds

B4: CC40.8-WT mAb (antibody, V domains shown)
VH: EVQLLESGGGLVQPGGSLRLSCAASGFTFSSYVMTWARQAPGKGLEWVSAISGTGYTYYADSVKGRFTVSRDNSKNTLFLQMSSLRAEDTAVYYCAITMAPVVWGQGTTVTVSS
VL: SYELTQPPSVSVSPGQTARITCSGDALPKRYAYWYQQKSGQAPILVIYEDKKRPSGIPERLSGSKSGTVATLTISGAQVEDEADYYCYSTDSSGNHAVFGGGTQLTVLG
[4]
  binding result: binds
